Results published in patent US20130196373.
Like-named read-outs stand apart in the source and are kept apart here.

What was measured:
[1] = system: TALEN 101238a (Xanthomonas (engineered)?); experiment: cell_activity; details: paired with 101236, K562; SELEX preference improved
[2] = system: TALEN 101238e (Xanthomonas (engineered)?); experiment: cell_activity; details: paired with 101236, K562; SELEX not interpretable
[3] = system: TALEN 101238c (Xanthomonas (engineered)?); experiment: cell_activity; details: paired with 101236, K562; SELEX preference improved
[4] = system: TALEN 101238b (Xanthomonas (engineered)?); experiment: cell_activity; details: paired with 101236, K562; SELEX preference improved
[5] = system: TALEN 101238 (Xanthomonas (engineered)?); experiment: cell_activity; details: paired with 101236, K562
[6] = system: TALEN 101238d (Xanthomonas (engineered)?); experiment: cell_activity; details: paired with 101236, K562
[7] = system: TALE 101042-BfiI (Xanthomonas/Bacillus (engineered)?); experiment: cell_activity; details: paired with 101047-BfiI, K562
[8] = system: TALE 101043-BfiI (Xanthomonas/Bacillus (engineered)?); experiment: cell_activity; details: paired with 101047-BfiI, K562
[9] = system: TALE TL_CTTC RD-RG-RG-KD (Xanthomonas (engineered)?); details: ELISA; site composed
[10] = system: TALE TL_CTTC RD-RG-MG-ND (Xanthomonas (engineered)?); details: ELISA; site composed
[11] = system: TALE TL_CTTC RD-RG-KG-AD (Xanthomonas (engineered)?); details: ELISA; site composed
[12] = system: TALE 101047-BfiI (Xanthomonas/Bacillus (engineered)?); experiment: cell_activity; details: paired with 101043-BfiI, K562
[13] = system: TALEN Condition 3 lane 8 (Xanthomonas (engineered)?); experiment: cell_activity; details: paired with 101041
[14] = system: TALEN 102109 (R*) (Xanthomonas (engineered)?); experiment: cell_activity; details: paired with 102204, K562
[15] = system: TALEN 101047 (R) (Xanthomonas (engineered)?); experiment: cell_activity; details: paired with 101041, K562
[16] = system: TALEN 3-1 (Xanthomonas (engineered)?); experiment: cell_activity; details: paired with 101041
[17] = system: TALEN Condition 4 lane 64 (Xanthomonas (engineered)?); experiment: cell_activity; details: paired with 101041
[18] = system: TALEN 4-1 (Xanthomonas (engineered)?); experiment: cell_activity; details: paired with 101041
[19] = system: TALEN 101664 (R551-C17-KKR) (Xanthomonas (engineered)?); experiment: cell_activity; details: paired with 101662, 12 bp gap, K562
[20] = system: TALE TL_TCAT QG-KD-KI-AA (Xanthomonas (engineered)?); details: ELISA
[21] = system: TALE TL_TCAT canonical (Xanthomonas (engineered)?); details: ELISA, AFU 204
[22] = system: TALE TL_TCAT QG-AD-HI-KG (Xanthomonas (engineered)?); details: ELISA
[23] = system: TALE TL_TCAT AA-KD-KI-MG (Xanthomonas (engineered)?); details: ELISA
[24] = system: TALEN 101662 (L538-C17-ELD) (Xanthomonas (engineered)?); experiment: cell_activity; details: paired with 101664, 12 bp gap, K562
[25] = system: TALEN 2-1 (Xanthomonas (engineered)?); experiment: cell_activity; details: paired with 101047
[26] = system: TALEN 1-1 (Xanthomonas (engineered)?); experiment: cell_activity; details: paired with 101047
[27] = system: TALEN Condition 1 lane 40 (Xanthomonas (engineered)?); experiment: cell_activity; details: paired with 101047
[28] = system: TALEN 102204 (L*) (Xanthomonas (engineered)?); experiment: cell_activity; details: paired with 102109, K562
[29] = system: TALEN Condition 2 lane 45 (Xanthomonas (engineered)?); experiment: cell_activity; details: paired with 101047
[30] = system: TALEN 102297 (L538NC-C17-ELD) (Xanthomonas (engineered)?); experiment: cell_activity; details: paired with 101664, 12 bp gap, K562
[31] = system: TALEN 101041 (L) (Xanthomonas (engineered)?); experiment: cell_activity; details: paired with 101047, K562
[32] = system: TALE 101048-BfiI (Xanthomonas/Bacillus (engineered)?); experiment: cell_activity; details: paired with 101043-BfiI, K562
[33] = system: CXA TALE SNN (Xanthomonas (engineered)?)
[34] = system: CXA TALE SAK (Xanthomonas (engineered)?)
[35] = system: CXA TALE SRI (Xanthomonas (engineered)?)
[36] = system: CXA TALE NRI S11N (repeat 5) (Xanthomonas (engineered)?)
[37] = system: CXA TALE SHD (Xanthomonas (engineered)?)
[38] = system: CXA TALE NRD S11N (repeat 5) (Xanthomonas (engineered)?)
[39] = system: CXA TALE KRI S11K (repeat 5) (Xanthomonas (engineered)?)
[40] = system: CXA TALE KAK S11K (repeat 5) (Xanthomonas (engineered)?)
[41] = system: CXA TALE SKD (Xanthomonas (engineered)?)
[42] = system: CXA TALE KKD S11K (repeat 5) (Xanthomonas (engineered)?)
[43] = system: CXA TALE SNG (Xanthomonas (engineered)?)
[44] = system: CXA TALE SNI (pos 11-13) (Xanthomonas (engineered)?)
[45] = system: CXA TALE SRD (Xanthomonas (engineered)?)
[46] = system: CXA TALE KRD S11K (repeat 5) (Xanthomonas (engineered)?)
[47] = system: TALE TR_ATAC HI-VA-CI-ND (Xanthomonas (engineered)?); details: ELISA; site composed
[48] = system: TALE TR_ATAC CI-VA-HI-ND (Xanthomonas (engineered)?); details: ELISA; site composed
[49] = system: TALE TR_ATAC KI-MG-HI-RD (Xanthomonas (engineered)?); details: ELISA; site composed
[50] = system: TALE TR_ATTG CI-KG-QG-HN (Xanthomonas (engineered)?); details: ELISA; site composed
[51] = system: TALE TR_ATTG HI-RG-MG-HN (Xanthomonas (engineered)?); details: ELISA; site composed
[52] = system: TALE TR_ATTG CI-MG-KG-HN (Xanthomonas (engineered)?); details: ELISA; site composed
[53] = system: TALE TR_CAGA ND-HI-HN-KI (Xanthomonas (engineered)?); details: ELISA; site composed
[54] = system: TALE TR_CAGA AD-HI-GN-HI (Xanthomonas (engineered)?); details: ELISA; site composed
[55] = system: TALE TR_CAGA KD-HI-FN-HI (Xanthomonas (engineered)?); details: ELISA; site composed
[56] = system: TALE TR_CAGC ND-KI-FN-AD (Xanthomonas (engineered)?); details: ELISA
[57] = system: TALE TR_CAGC RD-HI-GN-ND (Xanthomonas (engineered)?); details: ELISA
[58] = system: TALE TR_CAGC canonical (Xanthomonas (engineered)?); details: ELISA, AFU 649
[59] = system: TALE TR_CAGC RD-HI-HN-ND (Xanthomonas (engineered)?); details: ELISA
[60] = system: TALE TR_CCTG ND-KD-HG-HN (Xanthomonas (engineered)?); details: ELISA; site composed
[61] = system: TALE TR_CCTG AD-RD-HG-HN (Xanthomonas (engineered)?); details: ELISA; site composed
[62] = system: TALE TR_CCTG RD-ND-AA-HN (Xanthomonas (engineered)?); details: ELISA; site composed
[63] = system: TALE TR_CCTG canonical (Xanthomonas (engineered)?); details: ELISA, AFU 1020; site composed
[64] = system: TALE TR_TACA VA-CI-ND-HI (Xanthomonas (engineered)?); details: ELISA; full site composed from anchor + subsite
[65] = system: TALE TR_TACA canonical (Xanthomonas (engineered)?); details: ELISA, AFU 779; site composed
[66] = system: TALE TR_TACA KG-KI-KD-CI (Xanthomonas (engineered)?); details: ELISA; site composed
[67] = system: TALE TR_TACA RG-HI-RD-KI (Xanthomonas (engineered)?); details: ELISA; full site composed from anchor + subsite

## PITX3 target of 101238
[1]
  activity: 54 % indels
[2]
  activity: 22 % indels
[3]
  activity: 44 % indels
[4]
  activity: 50 % indels
[5]
  activity: 34 % indels
[6]
  activity: 43 % indels

## TACACCTGCAGCTCT (double strand) [101042 half-site]
[7]
  activity: 0.11 % indels

## TACACCTGCAGCTCTCAT (double strand) [101043 half-site]
[8]
  activity: 0.75 % indels

## TCTTCATCCT (double strand) [TL CTTC target]
[9]
  binding signal (fold vs canonical): 13.8
[10]
  binding signal (fold vs canonical): 0.16
[11]
  binding signal (fold vs canonical): 8.22

## TCTTCCAGAATTGATACT (double strand) [CCR5 R557 half-site]
[12]
  activity: 0.75 % indels
[13]
  activity: 0 % NHEJ
[14]
  activity: 65.2 % indels
[15]
  activity: 50.6 % indels
[16]
  activity: 56.3 % NHEJ
[17]
  activity: 0 % NHEJ
[18]
  activity: 59.5 % NHEJ

## TGATACTGACTGT (double strand) [CCR5 R551 half-site]
[19]
  activity: 59 % NHEJ

## TTCATATCCT (double strand) [TL TCAT target]
[20]
  binding signal (fold vs canonical): 2.34
[21]
  binding signal (fold vs canonical): 1
[22]
  binding signal (fold vs canonical): 2.26
[23]
  binding signal (fold vs canonical): 0.05

## TTCATTACACCTGCAGCT (double strand) [CCR5 L538 half-site]
[24]
  activity: 59 % NHEJ
[25]
  activity: 64.1 % NHEJ
[26]
  activity: 36.6 % NHEJ
[27]
  activity: 0 % NHEJ
[28]
  activity: 65.2 % indels
[29]
  activity: 0 % NHEJ
[30]
  activity: 56.2 % NHEJ
[31]
  activity: 50.6 % indels

## TTCTTCCAGAATTGAT (double strand) [101048 half-site]
[32]
  activity: 0.27 % indels

## TTGACAATCCT (double strand) [CAA target]
[33]
  binding signal (normalized ELISA): 1.12
[34]
  binding signal (normalized ELISA): 0.01
[35]
  binding signal (normalized ELISA): 0.51
[36]
  binding signal (normalized ELISA): 0
[37]
  binding signal (normalized ELISA): 0.38
[38]
  binding signal (normalized ELISA): 0.07
[39]
  binding signal (normalized ELISA): 0.74
[40]
  binding signal (normalized ELISA): 0.05
[41]
  binding signal (normalized ELISA): 0.14
[42]
  binding signal (normalized ELISA): 0.25
[43]
  binding signal (normalized ELISA): 0.63
[44]; flanking RVDs inferred from anchors
  binding signal (normalized ELISA): 0.96
[45]
  binding signal (normalized ELISA): 0.26
[46]
  binding signal (normalized ELISA): 0.48

## TTGACATACT (double strand) [TR ATAC target]
[47]
  binding signal (fold vs canonical): 1.36
[48]
  binding signal (fold vs canonical): 1.4
[49]
  binding signal (fold vs canonical): 0.47

## TTGACATTGT (double strand) [TR ATTG target]
[50]
  binding signal (fold vs canonical): 1.12
[51]
  binding signal (fold vs canonical): 0
[52]
  binding signal (fold vs canonical): 1.22

## TTGACCAGAT (double strand) [TR CAGA target]
[53]
  binding signal (fold vs canonical): 1.28
[54]
  binding signal (fold vs canonical): 0.04
[55]
  binding signal (fold vs canonical): 1.3

## TTGACCAGCT (double strand) [TR CAGC target]
[56]
  binding signal (fold vs canonical): 0
[57]
  binding signal (fold vs canonical): 0.4
[58]
  binding signal (fold vs canonical): 1
[59]
  binding signal (fold vs canonical): 1.52

## TTGACCATCCT (double strand) [CCA target]
[33]
  binding signal (normalized ELISA): 0.01
[35]
  binding signal (normalized ELISA): 0.04
[37]
  binding signal (normalized ELISA): 1.29
[38]
  binding signal (normalized ELISA): 0.53
[39]
  binding signal (normalized ELISA): 0.28
[41]
  binding signal (normalized ELISA): 0.5
[42]
  binding signal (normalized ELISA): 0.64
[43]
  binding signal (normalized ELISA): 0.15
[44]
  binding signal (normalized ELISA): 0.06
[45]
  binding signal (normalized ELISA): 0.91
[46]
  binding signal (normalized ELISA): 0.85

## TTGACCCTGT (double strand) [TR CCTG target]
[60]
  binding signal (fold vs canonical): 1.07
[61]
  binding signal (fold vs canonical): 1.3
[62]
  binding signal (fold vs canonical): 0.02
[63]
  binding signal (fold vs canonical): 1

## TTGACGATCCT (double strand) [CGA target]
[33]
  binding signal (normalized ELISA): 0.76
[34]
  binding signal (normalized ELISA): 0.21
[37]
  binding signal (normalized ELISA): 0.01
[40]
  binding signal (normalized ELISA): 0.28
[43]
  binding signal (normalized ELISA): 0.11
[44]
  binding signal (normalized ELISA): 0.01

## TTGACTACAT (double strand) [TR TACA target]
[64]
  binding signal (fold vs canonical): 1.57
[65]
  binding signal (fold vs canonical): 1
[66]
  binding signal (fold vs canonical): 0.48
[67]
  binding signal (fold vs canonical): 1.62

## TTGACTATCCT (double strand) [CTA target]
[33]
  binding signal (normalized ELISA): 0.03
[37]
  binding signal (normalized ELISA): 0.12
[43]
  binding signal (normalized ELISA): 0.99
[44]
  binding signal (normalized ELISA): 0.02
